Patent US20240166754A1 (SYNTHEKINE, published 2024)

T1: extracellular domain of mouse IL12RB1 (mIL12Rb1 ECD antigen) (mouse, UniProt Q60837 20-565)
T1 construct: also called murine IL12RB1
T1 sequence: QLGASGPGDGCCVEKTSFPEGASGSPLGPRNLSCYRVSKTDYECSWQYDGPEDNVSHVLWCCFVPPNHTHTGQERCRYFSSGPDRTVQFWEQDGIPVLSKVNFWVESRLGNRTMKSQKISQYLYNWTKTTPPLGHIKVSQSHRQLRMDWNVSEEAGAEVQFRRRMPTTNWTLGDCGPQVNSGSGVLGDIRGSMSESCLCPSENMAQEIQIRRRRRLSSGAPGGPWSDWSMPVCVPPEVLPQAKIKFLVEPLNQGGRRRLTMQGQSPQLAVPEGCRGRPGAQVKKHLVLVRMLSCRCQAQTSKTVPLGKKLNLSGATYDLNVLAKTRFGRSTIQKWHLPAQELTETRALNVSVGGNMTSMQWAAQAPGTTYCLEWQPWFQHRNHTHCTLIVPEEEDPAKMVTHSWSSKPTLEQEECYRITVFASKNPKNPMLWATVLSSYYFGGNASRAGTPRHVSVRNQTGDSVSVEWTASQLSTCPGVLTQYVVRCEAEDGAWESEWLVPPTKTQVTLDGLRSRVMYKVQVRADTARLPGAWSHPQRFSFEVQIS


Key:
[1] = target: T1, extracellular domain of mouse IL12RB1 …; assay: periplasmic extract ELISA on antigen-coated plate after phage biopanning
Procedure: (§1) Upon completion of the biopanning of Example 3, three 96-well plates of individual phage clones were isolated in order to perform periplasmic extract ELISA (PE-ELISA) on IL12Rb1 coated plates to identify positive VHH binders that selectively bound IL12Rb1. A 96-well plate was coated with IL12Rb1 and PBS under the same conditions. Next, wells were blocked at 37° ° C. for 1 h. Then, 100 μl of extracted antibodies was added to each well and incubated for 1 h. Subsequently, 100 μl of anti-tag polyclonal antibody conjugated to HRP was added to each well and incubated at 37 °C for 1 h. Plates were developed with TMB substrate. The reaction was stopped by the addition of H2SO4. Absorbance at 450 nm was read on a microtiter plate reader. Antibodies with absorbance of the antigen-coated well at least threefold greater than PBS-coated control are VHHs that specifically bind to IL12Rb1. Positive clones were sequenced, and sequences analyzed to identify unique clonotypes.

[2] = target: T2, extracellular domain of human IL12RB1 (hIL12Rb1 ECD antigen) (human, UniProt P42701 24-545); assay: as above
T2 construct: also called IL12Rβ1; CD212
Procedure: as §1

Row | binding result [1] | binding result [2] | Binder
1 | binds |  | mIL12Rb1_VHH12 (VHH, Camel VHH) VHH: QVQLQESGGGSVQAGGSLRLSCAASRYTYTNNFMAWFRQAPGKEREGVAAIYTGDGYAYYFYSVKGRFTISQDNDENMLYLQMNSLKPEDTAMYYCAAMERRIGTRRMTENAEYKYWGQGTQVTVSS
2 | binds |  | mIL12Rb1_VHH8 (VHH, Camel VHH) VHH: QVQLQESGGGSVQAGGFLRLSCVASGYGYCGYDMSWYRQAPGKEREFVALITSERVISYEDSVKGRFSISRDNAENTGYLEMNRLTPDDTAIYYCKTSAAARESSWCRSRYRVASWGQGTQVTVSS
3 | binds |  | mIL12Rb1_VHH15 (VHH, Camel VHH) VHH: QVQLQESGGGSVQAGGFLRLSCVASGYGYCGYDMSWYRQVPGKEREFVALITSDRSVSYEDSVKGRFSISRDNAKNTAYLEMNRLTPDDTAVYYCKTSTAARENNWCRSRYRIAYWGQGTQVTVSS
4 | binds |  | mIL12Rb1_VHH20 (VHH, Camel VHH) VHH: QVQLQESGGGSVQAGGSLRLSCVASGYGYCGYDMSWYRQTPGKEREFVALITSDRIASYEDSVKGRFIISRDNAKNTGYLDMTRVTPDDTAIYYCKTSAAARENSWCRSRYRVASWGQGTQVTVSS
5 | binds |  | mIL12Rb1_VHH11 (VHH, Camel VHH) VHH: QVQLQESGGGSVQAGGSLRLSCVASGYSYCGYDMMWYRQAPGKEREFVALITSDYSIRYEDSVEGRFSISRDNAKNTGYLLMSNLTPADTAIYYCKTSTAARESSWCRSRYRVASWGQGTQVTVSS
6 | binds |  | mIL12Rb1_VHH13 (VHH, Camel VHH) VHH: QVQLQESGGGSVQAGGSLRLSCVASGYSYCGYDMMWYRQAPGKEREFVALITSDYSIRYEDSVEGRFSISRDNAKNTGYLLMSNLTPADTAIYYCKTSTAARESGWCRSRYRVASWGQGTQVTVSS
7 | binds |  | mIL12Rb1_VHH10 (VHH, Camel VHH) VHH: QVQLQESGGGSVQAGGSLRLSCAVSGYDYCGYDVRWYRQAPGKEREFVSGIDSDGSTSYADSVKGRFTISQDNAENTSYLHMFSLKPEDTAMYYCKTESPAGESAWCRNFRGMDYWGKGTQVTVSS
8 | binds |  | mIL12Rb1_VHH14 (VHH, Camel VHH) VHH: QVQLQESGGGSVQAGGSLRLSCAVSGYDYCGYDVRWYRQAPGKEREFVSGINSDGSTSYADSVKGRFTISQDNAENTSYLHMFSLKPEDTAMYYCKTESPAGESAWCRNFRGMDYWGKGTQVTVSS
9 | binds |  | mIL12Rb1_VHH21 (VHH, Camel VHH) VHH: QVQLQESGGGSVQAGGSLRLSCAVSGYDYCGYDVRWYRRAPGKEREFVSGIDSDGSTSYADSVKGRFTISQDNAENTSYLHMFSLKPEDTAMYYCKTESPAGESAWCRNFRGMDYWGKGTQVTVSS
10 |  | binds | hIL12Rb1_VHH14 (VHH, Camel VHH) VHH: QVQLQESGGGSVQAGGSLRLSCAVSGYDYCGYDVRWYRRAPGKEREFVSGIDSDGSTSYADSVKGRFTISQDNAENTSYLHMFSLKPEDTAMYYCKTESPAGESAWCRNFRGMDYWGKGTQVTVSS
11 | binds |  | mIL12Rb1_VHH16 (VHH, Camel VHH) VHH: QVQLQESGGGSVQAGGSLRLSCAVSGYDYCGYDVRWYRQAPGKEREFVSGINSDGSTSYADSVKGRFTISQDNAENTSYLHMFSLKPEDTAMYYCKTEGPAGESAWCRNFRGMDYWGKGTQVTVSS
12 |  | binds | hIL12Rb1_VHH7 (VHH, Camel VHH) VHH: QVQLQESGGGSVQAGGSLRLSCAVSGYDYCGYDVRWYRRAPGKEREFVSGIDSDGSTSYADSVKGRFTISQDNAENTSYLHMFSLKPEDTAMYYCKTESPAGESAWCRNFRGMDYWGKGTQVTVSS
13 | binds |  | mIL12Rb1_VHH7 (VHH, Camel VHH) VHH: QVQLQESGGGSVQAGGSLRLSCAVSGYDYCGYDVRWYRRAPGKEREFVSGIDSDGSTSYADSVKGRFTISQDNAENTSYLHMFSLKPEDTAMYYCKTESPAGESAWCRNFRGMDYWGKGTQVTVSS

Continued, binder first:

Row | Binder | binding result [1] | binding result [2]
14 | mIL12Rb1_VHH1 (VHH, Camel VHH) VHH: QVQLQESGGGSVQAGGSLRLSCTASGYTYSSAFMAWFRQAPGKEREGVAAIYTRDGGTVYADSVKGRFTISQDNAKNTLYLQMNSLKAEDTAMYYCAAKIPQPGRASLLDSQTYDYWGQGTQVTVSS | binds | 
15 | mIL12Rb1_VHH23 (VHH, Camel VHH) VHH: QVQLQESGGGSVQAGGSLRLSCTASGYTYSSAFMAWFRQAPGKEREGVAAIYTRDGGTVYADSVKGRFTISQDNAKNTLYLQMNSLKPEDTAMYYCAAKMPQPGRASLLDSQTYDYWGQGTQVTVSS | binds | 
16 | mIL12Rb1_VHH22 (VHH, Camel VHH) VHH: QVQLQESGGGSVQAGGSLRLSCTASGYTYSSAFMAWFRQAPGKEREGVAAIYTRDGGTVYADSVKGRFTISQDNAKNILYLQMNSLKAEDTAMYYCAAKIPQPGRASLLDSQTYDYWGQGTQVTVSS | binds | 
17 | mIL12Rb1_VHH17 (VHH, Camel VHH) VHH: QVQLQESGGGSVQAGGSLRLSCTASGYTYSSAFMAWFRQAPGKEREGVAAMYTRDGGTVYADSVKGRFTISQDNAKNTLYLQIHTLKAEDTAMYYCAAKIPQPGRASLLDSQTYDYWGQGTQVTVSS | binds | 
18 | mIL12Rb1_VHH18 (VHH, Camel VHH) VHH: QVQLQESGGGSVQAGGSLRLSCTASGYTYSSAFMAWFRQAPGKEREGVAAMYTRDGGTVYADSVKGRFTISQDNAKNTLYLQMNSLKTEDTAMYYCAAKIPQPGRASLLDSQTYDYWGQGTQVTVSS | binds | 
19 | mIL12Rb1_VHH6 (VHH, Camel VHH) VHH: QVQLQESGGGSVQAGGSLRLSCTASGYTYSSAFMAWFRQAPGKEREGVAAIYTRDGSPVYADSLKGRFTISQDNAKNTLHLQMNSLKPEDTAMYYCAAKIPEPGRISLLDSQTYDYWGHGTQVTVSS | binds | 
20 | mIL12Rb1_VHH5 (VHH, Camel VHH) VHH: QVQLQESGGGSVQAGETLRLSCTVSGFTIDDSEMGWYRQAPGHECELVASGSSDDDTYYVDSVKGRFTISLDNAKNMVYLQMNSLKPEDTAVYYCATGPTYPPKDGDCAHWGQGTQVTVSS | binds | 
21 | hIL12Rb1_VHH1 (VHH, Camel VHH) VHH: QVQLQESGGGSVQAGGSLRLSCVASGYGYCGYDMSWYRQAPGKEREFVALITSDRSISYEDSVKARFIISRDNAANTGYLDMTRLTPDDTAIYYCKTSAAARESSWCRSRYRVASWGQGTQVTVSS |  | binds
22 | mIL12Rb1_VHH9 (VHH, Camel VHH) VHH: QVQLQESGGGSVQAGGSLRLSCVASGYGYCGYDMSWYRQAPGKEREFVALITSDRSISYEDSVKARFIISRDNAANTGYLDMTRLTPDDTAIYYCKTSAAARESSWCRSRYRVASWGQGTQVTVSS | binds | 
23 | mIL12Rb1_VHH4 (VHH, Camel VHH) VHH: QVQLQESGGGSVQAGGSLRLSCAASRYTYTNNFMAWFRQAPGKEREGVAAIYTGDGYAYYFDSVKGRFTISQDNDKNMLYLQMNSLKPEDTAMYYCAAMERRSGRRRMTENAEYKYWGQGTQVTVSS | binds | 
24 | mIL12Rb1_VHH19 (VHH, Camel VHH) VHH: QVQLQESGGGSVQAGGFLRLSCVASGYGYCGYDMSWYRQVPGKEREFVALITSDRSVSYEDSVKGRFSISRDNAKNTAYLEMNRLTPDDTAIYYCKTSTAARENNWCRSRYRIASWGQGTQVTVSS | binds | 
25 | mIL12Rb1_VHH3 (VHH, Camel VHH) VHH: QVQLQESGGGSVQAGGSLRLSCVASGYSYCGYDMMWYRQAPGKEREFVALITSDYSIRYEDSVEGRFSISRDNAKNTGYLLMSNLTPADTAIYYCKTSTAARESSWCRSRYRVASWGQGTQVTVSS | binds | 
26 | hIL12Rb1_VHH10 (VHH, Camel VHH) VHH: QVQLQESGGGSVQAGGSLRLSCAVSGYDYCGYDVRWYRQAPGKEREFVSGIDSDGSTSYADSVKGRFTISQDNAENTSYLHMFSLKPEDTAMYYCKTESPAGESAWCRNFRGMDYWGKGTQVTVSS |  | binds
27 | mIL12Rb1_VHH2 (VHH, Camel VHH) VHH: QVQLQESGGGSVQAGGSLRLSCAVSGYDYCGYDVRWYRQAPGKEREFVSGIDSDGSTSYADSVKGRFTISQDNAENTSYLHMFSLKPEDTAMYYCKTESPAGESAWCRNFRGMDYWGKGTQVTVSS | binds | 
